{
  "source": "patent US20100016697",
  "key": {"[1]": {"system": "MT1-MMP specific fluorogenic substrate MCA-Pro-Leu-Ala-Cys(p-OmeBz)-Trp-Ala-Arg(Dpa)-NH2"}, "[2]": {"system": "LTBP-1 fluorogenic peptide SCJJ-1"}},
  "data": [
    {"substance": "MMP-9 (part of MMP-2/9, Chemicon)", "values": [
      {"measurement": "fluorescence emission (cleavage of the quenched fluorogenic substrate)", "setting": "[1]", "result": "Incubation with MMP-2/9, MMP-8, or ADAM-10 and 17 alone failed to cause fluorescence emission from the MT1-MMP substrate."}
    ]},
    {"substance": "MMP-8 (Calbiochem)", "values": [
      {"measurement": "fluorescence emission (cleavage of the quenched fluorogenic substrate)", "setting": "[1]", "result": "Incubation with MMP-2/9, MMP-8, or ADAM-10 and 17 alone failed to cause fluorescence emission from the MT1-MMP substrate."}
    ]},
    {"substance": "MMP-2 catalytic domain (part of the MMP-2/-9 catalytic domain cocktail)", "values": [
      {"measurement": "fluorescent emission from the LTBP-1 substrate", "setting": "[2]", "result": "Incubation with an MMP-2/-9 catalytic domain cocktail (10 ug/mL) caused no fluorescent emission from the LTBP-1 substrate."}
    ]},
    {"substance": "MMP-9 catalytic domain (part of the MMP-2/-9 catalytic domain cocktail)", "values": [
      {"measurement": "fluorescent emission from the LTBP-1 substrate", "setting": "[2]", "result": "Incubation with an MMP-2/-9 catalytic domain cocktail (10 ug/mL) caused no fluorescent emission from the LTBP-1 substrate."}
    ]}
  ]
}
